The test system of data set [1] is T1, BhbR2 (MarR-family regulator) (Pigmentiphaga kullae H8), ORF:e62c0bd9.
T1 sequence: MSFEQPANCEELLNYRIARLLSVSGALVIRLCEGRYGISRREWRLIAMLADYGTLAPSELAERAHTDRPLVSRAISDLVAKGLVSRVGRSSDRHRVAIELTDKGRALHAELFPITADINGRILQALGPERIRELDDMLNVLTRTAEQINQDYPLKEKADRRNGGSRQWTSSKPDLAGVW
In words: EMSA. The following applies: EMSA BhbR1: 100 mM Tris-HCl pH 8.0, 50 mM KCl, 5% glycerol, 1 mM DTT, BhbR2: 50 mM Tris-HCl pH 8.0, 30 mM KCl, 1 mM EDTA, 5 mM DTT, 25 C, 30 min. …. On the technique in general: Mobility shift assays separate free from complexed probe on a gel.

Data set [2] has as its system T2, BhbR1 (LysR-type regulator) (Pigmentiphaga kullae H8), ORF:3710a82b.
T2 sequence: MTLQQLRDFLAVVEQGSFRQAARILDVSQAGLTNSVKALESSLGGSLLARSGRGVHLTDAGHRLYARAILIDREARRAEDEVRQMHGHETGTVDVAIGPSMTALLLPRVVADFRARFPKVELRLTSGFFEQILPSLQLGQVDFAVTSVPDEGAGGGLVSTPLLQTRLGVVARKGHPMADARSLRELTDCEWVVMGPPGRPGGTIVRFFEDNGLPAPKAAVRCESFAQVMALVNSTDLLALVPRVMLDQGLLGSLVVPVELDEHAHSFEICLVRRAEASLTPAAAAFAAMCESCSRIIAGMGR
Briefly: EMSA. The following applies: EMSA BhbR1: 100 mM Tris-HCl pH 8.0, 50 mM KCl, 5% glycerol, 1 mM DTT, BhbR2: 50 mM Tris-HCl pH 8.0, 30 mM KCl, 1 mM EDTA, 5 mM DTT, 25 C, 30 min. ….

For data set [3] the test system is unchanged. Briefly: SPR. The following applies: EMSA BhbR1: 100 mM Tris-HCl pH 8.0, 50 mM KCl, 5% glycerol, 1 mM DTT, BhbR2: 50 mM Tris-HCl pH 8.0, 30 mM KCl, 1 mM EDTA, 5 mM DTT, 25 C, 30 min. ….
The target of data set [4] is T3, BhbR2 (MarR-family transcription factor).
T3 construct: C-terminal His-tagged BhbR2 (179 amino acids), expressed in E. coli BL21(DE3)
In words: SPR (Biacore T200, protein immobilized on CM7 chip, steady-state affinity). It counts as binding, Pigmentiphaga kullae.

Data set [5] addresses T4, BhbR1 (LysR-type transcriptional regulator).
T4 construct: C-terminal His-tagged BhbR1 (302 amino acids), expressed in E. coli BL21(DE3)
The data set is described as above. It counts as binding, Pigmentiphaga kullae.

Data set [6] concerns the target MarR-family transcription factor BhbR2 (Pigmentiphaga kullae strain H8). In words: SEC; gel filtration on Superose 6 10/300 GL, 25°C, PBS pH 7.8, 0.4 mL/min, calibrated with protein molecular weight markers; oligomeric state of the purified regulator. (Size exclusion chromatography separates by hydrodynamic size, large species first.)
Data set [7] has as its target LysR-type transcriptional regulator BhbR1 (Pigmentiphaga kullae strain H8). The data set is described as above.
The subject of data set [8] is T1, BhbR2 (MarR-family regulator) (Pigmentiphaga kullae H8), ORF:e62c0bd9. Briefly: SPR. The following applies: EMSA BhbR1: 100 mM Tris-HCl pH 8.0, 50 mM KCl, 5% glycerol, 1 mM DTT, BhbR2: 50 mM Tris-HCl pH 8.0, 30 mM KCl, 1 mM EDTA, 5 mM DTT, 25 C, 30 min. ….
The test system of data set [9] is BhbR1 (LysR-type regulator) (Pigmentiphaga kullae H8). Briefly: SPR. The following applies: EMSA BhbR1: 100 mM Tris-HCl pH 8.0, 50 mM KCl, 5% glycerol, 1 mM DTT, BhbR2: 50 mM Tris-HCl pH 8.0, 30 mM KCl, 1 mM EDTA, 5 mM DTT, 25 C, 30 min. ….
The test system of data set [10] is BhbR2 (MarR-family regulator) (Pigmentiphaga kullae H8). Briefly: SPR. The following applies: EMSA BhbR1: 100 mM Tris-HCl pH 8.0, 50 mM KCl, 5% glycerol, 1 mM DTT, BhbR2: 50 mM Tris-HCl pH 8.0, 30 mM KCl, 1 mM EDTA, 5 mM DTT, 25 C, 30 min. ….

“And” between values parts separate entries of the source, which are not always exact repeats. Equal entries are not always repeated.

Take “GAACTCGAGTGATGCCGTAGCGGCCTTCGCACAACCGGATCACCAGCGCCCCGCTGACCGACAGCAGCCTGGCTATCCGGTAGTTCAGGAGTTCCTCGCAATTTGCGGGCTGCTCGAAGGACATGGCTGCTCCTGTGCCGACGGCGGTTGATTAGAACAATCAAGGACATGAAAGCTAGAGTCATTCTCCATAAAAAGCCCAGCAGCCGCAACGCCATACGCCGGCGCGGCCCTGGTCGTTTTCCCTCTACCCAAGGAGCATTGCCCACTAGTTTC (double strand) [PbR2 (PpcaA2 promoter probe, EMSA)]”: the binding result in data set [1] is “binds”.

With “TAATCCGACATCGGCCGCTCCAATAGTGAGAGGTCTTGCGATCCCCCCCTTTCCCCCGTAGGGCGTATGCGGTATTAGCTACGCTTTCGCGTAGTTATCCCCCGCTACTGGGCACGTTCCGATGCATTACTCACCCGTTCGCCACTCGCCGC (double strand) [Pb16S]”, the binding entry in data set [2] and in [1] was “no binding” throughout. In the case of “GAACTCGAGGTGCTGTCGATTTGTGCCATGTTGATCTCCTTCATGGACGCCGGCGGCTTCCACGCCTGCGTCCGGGGACGAGAAACTGCGGAAGCGTCGGGATACCAGCAAGGAACGTGCCCCGTGATCCGCGGTTGCTGATAGCAAACCGTTATCGAGATAAGGAAAAACTGGCTTTTCGCTGTGCGCGTGGATCGTGATACTGCCGCCGGGCCTGGATGAACGGGCCCGGCAACGGAACTACGACCCACGACTAGTTTC (double strand) [PbR1 (Pphbh1 promoter probe, EMSA)]”, the binding entry in [2] is on record as “binds”. Take “ACCAGCAAGGAACGTGCCCCGTGATCCGCGGTTGCTGATAGCAAACCGTTATCGAGATAAGGAAAAACTGGCTTTTCGCTGTGCGCGTGGATCGTGATACTGCCGCCGGGCCTGGATGAACGGGCCCGGCAACGGAACTACGAC (double strand) [Fphbh1 (Fpbhb1)]”: the Kd (usually a measure of binding affinity in units of concentration) in [3] is 0.7 nM and 1.2 nM.

For `O=C(O)c1ccc(O)c(Br)c1` [3-Br-4-HB, 3-bromo-4-hydroxybenzoate], the Kd in data set [4] was found to be 2100 nM; in [5], 2200 nM. As to “MarR-family transcription factor BhbR2 (natural protein)”, the stoichiometry N (as a rule, a count of units in the complex or per binding partner) in data set [6] came out at 2. “LysR-type transcriptional regulator BhbR1 (natural protein)” came in with a stoichiometry N in data set [7] of 4. In the case of “GGGCAATGCTCCTTGGGTAGAGGGAAAACGACCAGGGCCGCGCCGGCGTATGGCGTTGCGGCTGCTGGGCTTTTTATGGAGAATGACTCTAGCTTTCATGTCCTTGATTGTTCTAATCAACCGCCGTCGGCACAGGAGCAGCCATGTCCTTCG (double strand) [FpcaA2]”, the Kd in [8] was 397 nM and 259 nM. Fphbh1 (Fpbhb1): the figures for the Kd in data set [9] (5 uM 3-Br-4-HB) and in data set [9] (no inducer) were 1.2 nM and 0.7 nM, respectively. With FpcaA2, the Kd is 259 nM in data set [10] (5 uM 3-Br-4-HB) and 397 nM in [10] (no inducer).
